Data as given in paper PMC11111093.

Biological target: HA-ADAP (UniProt O15117)
Experiment: co-IP; HEK293T co-transfected with HA-ADAP and Flag-RIG-I or Flag-tagged RIG-I truncations, lysates 48 h after transfection; anti-HA immunoprecipitation, anti-Flag blot

Sequence of UniProt O15117 (O15117 whole entry, the tested form may be a part): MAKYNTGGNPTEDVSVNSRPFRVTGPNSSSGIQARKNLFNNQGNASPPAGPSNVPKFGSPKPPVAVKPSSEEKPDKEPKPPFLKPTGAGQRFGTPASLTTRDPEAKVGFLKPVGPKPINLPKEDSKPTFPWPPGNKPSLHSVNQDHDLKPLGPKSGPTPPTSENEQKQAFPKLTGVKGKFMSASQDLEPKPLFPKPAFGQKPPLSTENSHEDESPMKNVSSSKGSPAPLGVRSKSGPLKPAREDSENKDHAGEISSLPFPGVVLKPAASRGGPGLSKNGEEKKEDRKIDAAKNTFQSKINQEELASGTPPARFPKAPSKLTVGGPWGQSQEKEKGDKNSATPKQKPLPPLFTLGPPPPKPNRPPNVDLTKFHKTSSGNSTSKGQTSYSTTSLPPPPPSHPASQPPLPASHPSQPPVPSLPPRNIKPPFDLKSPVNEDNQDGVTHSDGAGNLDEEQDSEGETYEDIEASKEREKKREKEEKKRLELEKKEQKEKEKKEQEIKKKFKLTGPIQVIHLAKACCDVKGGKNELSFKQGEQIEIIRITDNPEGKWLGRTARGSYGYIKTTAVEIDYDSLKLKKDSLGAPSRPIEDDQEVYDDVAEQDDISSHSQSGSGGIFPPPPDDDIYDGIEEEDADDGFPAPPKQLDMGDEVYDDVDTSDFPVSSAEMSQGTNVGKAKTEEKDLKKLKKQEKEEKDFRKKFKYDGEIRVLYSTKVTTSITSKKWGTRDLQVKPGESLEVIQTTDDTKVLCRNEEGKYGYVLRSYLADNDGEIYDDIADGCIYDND

percent decrease in binding compared to wild-type RIG-I: 60%
Substance: Flag-RIG-I helicase domain (aa 239-734) (from UniProt O95786 239-734) (domain or fragment)
